The source of these data is PMC5803212, “Supramolecular aptamer nano-constructs for receptor-mediated targeting and light-triggered release of chemotherapeutics into cancer cells”.

Data set [1] has as its target cMet-Fc (HGFR ectodomain fused to human IgG1 Fc) (human) (UniProt P08581). Nature of the data set: competition filter binding. Particulars: vs 5'-32P-trCLN3; ~50 nM cMet; four 5'-terminal 5-(1-dodecynyl)-dU (C12 lipid; printed as LLLL, written as UUUU); 1x PBS pH 7.4, 2 mM MgCl2, 0.1 mg/mL E. coli tRNA, 0.25 mg/mL BSA, 37 C, 30 min; ~25 fmol 32P-trCLN3, ~50 nM cMet, 25 uL, nitrocellulose filter.

Data set [2] addresses cMet-Fc (HGFR ectodomain fused to human IgG1 Fc) (human, UniProt P08581 25-932). The data set can be described thus: competition filter binding; vs 5'-32P-trCLN3; ~50 nM cMet; 1x PBS pH 7.4, 2 mM MgCl2, 0.1 mg/mL E. coli tRNA, 0.25 mg/mL BSA, 37 C, 30 min; ~25 fmol 32P-trCLN3, ~50 nM cMet, 25 uL, nitrocellulose filter. Particulars: protein: commercial; two predicted intramolecular G-quadruplexes.

cMet-Fc (HGFR ectodomain fused to human IgG1 Fc) (human), sequence (P08581 25-932): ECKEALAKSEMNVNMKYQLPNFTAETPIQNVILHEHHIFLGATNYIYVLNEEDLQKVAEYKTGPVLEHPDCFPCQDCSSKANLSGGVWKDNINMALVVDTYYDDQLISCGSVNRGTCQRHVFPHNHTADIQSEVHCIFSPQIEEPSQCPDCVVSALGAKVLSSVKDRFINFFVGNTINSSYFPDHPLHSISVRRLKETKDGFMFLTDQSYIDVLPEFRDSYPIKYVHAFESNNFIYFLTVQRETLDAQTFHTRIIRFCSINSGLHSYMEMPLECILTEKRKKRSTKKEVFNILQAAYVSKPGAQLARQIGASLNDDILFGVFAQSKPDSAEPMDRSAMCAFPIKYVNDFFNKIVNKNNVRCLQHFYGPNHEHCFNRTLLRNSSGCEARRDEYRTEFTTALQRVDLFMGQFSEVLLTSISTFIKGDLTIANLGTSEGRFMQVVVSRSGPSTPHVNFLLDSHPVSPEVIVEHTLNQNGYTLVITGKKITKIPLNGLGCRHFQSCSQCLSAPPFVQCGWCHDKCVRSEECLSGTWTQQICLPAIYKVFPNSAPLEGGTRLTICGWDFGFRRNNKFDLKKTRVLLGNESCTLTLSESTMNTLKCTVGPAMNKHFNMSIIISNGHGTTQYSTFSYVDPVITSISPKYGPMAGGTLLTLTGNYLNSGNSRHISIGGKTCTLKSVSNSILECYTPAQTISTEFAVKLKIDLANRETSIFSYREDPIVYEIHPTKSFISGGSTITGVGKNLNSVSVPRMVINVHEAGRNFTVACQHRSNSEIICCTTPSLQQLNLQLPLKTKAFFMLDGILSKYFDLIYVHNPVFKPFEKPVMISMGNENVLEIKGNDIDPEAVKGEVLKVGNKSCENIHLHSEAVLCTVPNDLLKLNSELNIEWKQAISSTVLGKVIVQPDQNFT
cMet-Fc (HGFR ectodomain fused to human IgG1 Fc), sequence (P08581 25-932): as above

“UUUUTGGATGGTAGCTCGGTCGGGGTGGGTGGGTTGGCAAGTCT [trCLN3-L4]”: in data set [1], the IC50 (commonly the concentration that gives 50% inhibition) amounted to 43 nM.

B1: trCLN3 (structured_DNA)
DNA: TGGATGGTAGCTCGGTCGGGGTGGGTGGGTTGGCAAGTCT
Turning to B1, in data set [2], the IC50 was 56 nM.
